Measured values reported in PMC12744356.

Molecular target: EsxX glycine zipper peptide (EsxX 448-476), N-terminal biotin (Staphylococcus aureus (ST398))
Assay: BLI; biotinylated peptide captured on streptavidin SAX biosensors (~1.0 nm); ExiABhis 50 uM to 1.6 uM in 2-fold dilutions in 10X Kinetics Buffer; association 180 s at 25 C; 1:1 kinetic model and steady-state model

ExiA-ExiBhis dimer (complex)
Kd: 22 µM
stoichiometry N: 1
